Test results from paper PMC1807944.
Where two headings read alike, the source gives them in different places.

Tests used:
Assay in all cases: SAXS titration
[1] = target: T1, HIV-1 integrase (IN), monomer E (HIV-1, UniProt P04585 1148-1435)
[2] = target: T1, HIV-1 integrase (IN), monomer E; remark: listed apart in the source
[3] = target: T1, HIV-1 integrase (IN), monomer E; remark: listed apart in the source

Row | Binder | Kd [1] [µM] | also measured
1 | AAAAA (ssDNA) [ss A5] | 2.6 ± 0.4 | –
2 | GTGTGGAAAATCTCTAGCA (ssDNA) [ss 19-CA] | – | Kd [2]: 30 ± 15 nM
3 | GCAGT (ssDNA) [ss GCAGT] | 7.1 ± 0.7 | –
4 | GTGTGGAAAATCTCTAGCAGT (ssDNA) [ss 21-GT] | – | Kd [3]: 10.6 ± 10 nM
